“Also recorded” adds a separate entry of the source.
Columns and labels:
[1] = Biochemical conditions for optimal enzyme activity (NaCl, pH, temperature, divalent metals)
Experimental: For experiments measuring the relative effect of ionic strength on glycuronidase activity, the NaCl concentration was varied from 0.05 to 1 M in 0.1 M sodium phosphate buffer (pH 6.4), 200 μM ΔUHNS,6S and […] under otherwise standard reaction conditions. The effect of pH on catalytic activity was kinetically determined at varying AUHNS,6S concentrations in 0.1 M sodium phosphate buffer at pH 5.2, 5.6, 6.0, 6.4, 6.8, 7.2 and 7.8. Data were fit to Michaelis-Menten kinetics as described above and the relative kcat/Km ratios plotted as a function of pH.
To determine the optimal reaction conditions for Δ4, 5 glycuronidase activity, we analyzed initial reaction rates as a function of buffer, pH, temperature, and ionic strength (FIG. 6). For these experiments, we used the disulfated heparin disaccharide substrate ΔUHNS,6S. Based on what is known about the degradation of heparin/heparan sulfate-like glycosaminoglycans by flavobacteria as well as initial biochemical characterization of this and related enzymes [Warnick, C. T. and Linker, A., 1972, Biochemistry 11, 568-72], we hypothesized that a heparin disaccharide would be an optimal substrate for the Δ4, 5 glycuronidase. Enzyme activity was routinely monitored by a loss of absorbance at 232 nm, corresponding indirectly to the hydrolysis of the uronic acid from the non-reducing end.

[2] = Storage stability and solubility of the recombinant protein after 6× His tag removal; format: physicochemical; conditions: 6× His tag removed, phosphate buffer
Experimental: (§1) A two-step purification comprised of Ni^+2 chelation chromatography followed by thrombin cleavage to remove the 6× His purification tag, typically yielded over 200 mg of greater than 90% pure enzyme as assessed by SDS-PAGE followed by Coomassie Brilliant Blue staining. […] T. and Linker, A., 1972, Biochemistry 11, 568-72]. While removal of the 6× His tag from the N-terminus of the enzyme was unnecessary for optimal hydrolytic activity, the presence of the histidine tag did appear to instigate protein precipitation over an extended time especially at higher enzyme concentrations. This tag was, therefore removed for all subsequent biochemical experiments. In this manner, the recombinant protein was stable at 4° C. for at least two weeks during which time it remained in solution at protein concentrations exceeding 10 mg/mL under the buffer conditions described.

[3] = substrate: N[C@H]1C(O)O[C@H](COS(=O)(=O)O)[C@@H](O[C@@H]2OC(C(=O)O)=C[C@H](O)[C@H]2O)[C@@H]1O; assay: Kinetic parameters of Δ4, 5 glycuronidase for disaccharide substrates (loss of absorbance at 232 nm, Michaelis-Menten fit); format: biochemical, F. heparinum; conditions: other: 200 nM enzyme, 30° C., pH 6.4, substrate 48 to 400 μM
Experimental: (§2) Assay for enzyme activity and determination of kinetic parameters. Standard reactions were carried out at 30° C. and included 100 mM sodium phosphate buffer, pH 6.4, 50 mM NaCl, 500 μM disaccharide substrate and 200 nM enzyme in a 100 μl reaction volume. Hydrolysis of heparin disaccharides was determined spectrophotometrically by measuring the loss of the Δ4, 5 chromophore measured at 232 nm Substrate hydrolysis was calculated using the following molar extinction coefficients empirically determined for each disaccharide substrate: ΔUHNAc, ε232=4,524; ΔUHNAc6S, ε232=4,300; ΔUHNS, ε232=6,600; ΔUHNS,6S, ε232=6,075; ΔUHNH26S, ε232=4,826; ΔU2SHNS, ε232=4,433. Initial rates (Vo) were extrapolated from linear activities representing <10% substrate turnover and fit to pseudo first-order kinetics. For kinetic experiments, disaccharide concentration for each respective substrate was varied from 48 to 400 μM concentrations. Km and kcat values were extrapolated from Vo vs. [S] curves fit to the Michaelis Menten equation by a non-linear, least squares regression.
(§3) The specificity of the Δ4, 5 glycuronidase acting on various glycosaminoglycan disaccharide substrates was investigated. The various substrates examined included both heparin and chondroitin disaccharides as well as an hyaluronadate. In particular, we considered the possibility of any structural discriminations pertaining to glycosidic linkage position (1→4 vs. 1→3) and relative sulfation state within the disaccharide. For each substrate, kinetic parameters were determined based on substrate saturation profiles that fit Michaelis-Menten assumptions (FIG. 8).

[4] = substrate: O=C(O)C1=C[C@H](O)[C@@H](O)[C@H](O[C@H]2[C@H](O)[C@@H](NS(=O)(=O)O)C(O)O[C@@H]2CO)O1; assay: as above; format: biochemical, F. heparinum; conditions: other: 200 nM enzyme, 30° C., pH 6.4, substrate 48 to 400 μM
Experimental: as §2, §3

[5] = substrate: CC(=O)N[C@H]1C(O)O[C@H](COS(=O)(=O)O)[C@@H](O[C@@H]2OC(C(=O)O)=C[C@H](O)[C@H]2O)[C@@H]1O; assay: as above; format: biochemical, F. heparinum; conditions: other: 200 nM enzyme, 30° C., pH 6.4, substrate 48 to 400 μM
Experimental: as §2, §3

[6] = substrate: CC(=O)N[C@H]1C(O)O[C@H](CO)[C@@H](O[C@@H]2OC(C(=O)O)=C[C@H](O)[C@H]2O)[C@@H]1O; assay: as above; format: biochemical, F. heparinum; conditions: other: 200 nM enzyme, 30° C., pH 6.4, substrate 48 to 400 μM
Experimental: as §2, §3

[7] = substrate: O=C(O)C1=C[C@H](O)[C@@H](O)[C@H](O[C@H]2[C@H](O)[C@@H](NS(=O)(=O)O)C(O)O[C@@H]2COS(=O)(=O)O)O1; assay: as above; format: biochemical, F. heparinum; conditions: other: 200 nM enzyme, 30° C., pH 6.4, substrate 48 to 400 μM
Experimental: as §2, §3

[8] = Specific activity of recombinant Δ4, 5 glycuronidase purification fractions; format: biochemical; conditions: 800 ng protein, 120 μM ΔUHNAc, 100 μl
Experimental: as §2, §1

[9] = Kinetic comparison of native and recombinant enzymes; format: biochemical; conditions: identical reaction conditions, 200 nM enzyme, 500 μM ΔUHNAc
Experimental: FIG. 7 depicts a kinetic comparison of native and recombinant enzymes. Relative specific activities were measured for both enzyme fractions under identical reaction conditions that included 200 nM enzyme and 500 μM of the heparin disaccharide substrate (ΔUHNAc). Flavobacterial Δ4, 5 (closed circles); recombinant Δ4, 5 (open circles).
Having established the reaction conditions for optimal Δ4, 5 glycuronidase activity, we next compared the specific activity of the recombinant enzyme (Δ4,5^Δ20) relative to the native enzyme purified directly from F. heparinum (FIG. 7). The activities of both enzyme fractions were measured in parallel under identical reaction conditions.

B1: recombinant Δ4, 5 glycuronidase (Δ4,5^Δ20) (Pedobacter heparinus DSM 2366) (protein)
chain: MTVTKGNGDDWLKKSTKTAVIQLTRAAQTYTPGMNPRSVNPDGTVRLAPPRDWTTGFFPGTLWYGYELSGDKNLAAEAKRFTLALDTIQYVKDTHDLGFMLYCSYGNAYRVTGDKIYLKPLENGAANLYARFNKKVGAIRSWDFGHWQFPVIIDNLMNLEYLYWAGKEFNKPEWFDAAKTHAVTTMKNHFRKDYSSYHVISYDTLSGKVLQRETHQGLTNESAWARGQAWGLYGYTMSYKDTKDKKFIEHAEHIAAFIMNHPAMPADKIPLWDFDVHNRDRSPRDASAAAVIASALLDLSTQVKDGQKYFKFAEDILKTLSSDEYLAKPGENQFFILKHSVGALLYNSEIDTPLNYADYYYLEALKRYAEIKKIDLKTINQS
- requirement for divalent metal ions [1]: no evidence that metals are either required for catalysis or activate the enzyme
- pH optimum ([1]; 0.1 M sodium phosphate pH 5.2-7.8, ΔUHNS,6S, relative kcat/Km): 6.4
- initial reaction rates at highest temperatures ([1]; especially at 42° C.): significantly reduced
- relative enzyme activities after preincubation (enzyme stability) ([1]; preincubation at 30, 37, and 42° C., then measured at standard 30° C.): no significant change
- inhibition at 250 mM NaCl ([1]; relative to 100% activity at 100 mM NaCl): approximately 60%
- stable at 4° C. [2]: at least two weeks
- Km [3]: 235 ± 40 µM
- kcat [3]: 2.4 ± 0.2 s⁻¹
- kcat/Km [3]: 10000 M⁻¹ s⁻¹
- Km [4]: 251 ± 40 µM
- kcat [4]: 4.9 ± 0.4 s⁻¹
- kcat/Km [4]: 20000 M⁻¹ s⁻¹
- Km [5]: 107 ± 15 µM
- kcat [5]: 11.7 ± 0.6 s⁻¹
- kcat/Km [5]: 110000 M⁻¹ s⁻¹
- Km [6]: 283 ± 31 µM
- kcat [6]: 15.3 ± 0.9 s⁻¹
- kcat/Km [6]: 54000 M⁻¹ s⁻¹
- Km [7]: 334 ± 57 µM
- kcat [7]: 8.8 ± 0.9 s⁻¹
- kcat/Km [7]: 26000 M⁻¹ s⁻¹
- Sp. Activity ([8]; Crude lysate): 4.7 μmoles DiS/min./mg protein
- Sp. Activity ([8]; Ni^+2 chromatography): 12.9 μmoles DiS/min./mg protein
- Sp. Activity ([8]; Thrombin cleavage): 13.6 μmoles DiS/min./mg protein
- specific activity relative to the native Flavobacterial enzyme [9]: approximately three-fold; also recorded: at least two-fold; also recorded: roughly three-fold

From US7951560B2, “Delta 4,5 glycuronidase compositions and methods related thereto” (Massachusetts Institute of Technology, priority 2002, dated 2011)
